From patent US8318473B2, “Biofuel production” (Bio Architecture Lab, Inc., priority 2007, dated 2012)

Columns and labels:
[1] = TBA assay of culture media for secreted alginate lyase; conditions: media of overnight BL21 culture, LB+2% alginate+0.1 mM IPTG; 1:1 with 0.8% TBA, 10 min at 99 degrees Celsius; FIG. 47
[2] = Kinetic testing of oxidation and reduction reactions on various substrates using 2ADH-16; assay type: biochemical; conditions: 0.04 mg/mL enzyme, 0.25 mg/mL cofactor, 20 mM Tris HCl pH 6.5(red) or 9.0(ox), 25 C; FIG. 35, 36
Protocol: Similar to above, kinetic testing for both oxidation and reduction reactions was performed on various substrates using 2ADH-16. The conditions for these studies were as follows: 0.04 mg/mL enzyme, 0.25 mg/mL cofactor, 20 mM Tris HCl Buffer pH 6.5(red) or 9.0(ox), T=25 C, 100 uL total volume was used.

[3] = In vitro pyruvate formation from alginate with purified enzymes; conditions: ~5 ug purified enzyme with Atu3025, UxuA, KdgK, KdgA; 1% alginate or ~0.5% mannuronate; over night; FIG. 6B, 6C
Protocol: The reaction mixture contained 1% alginate or ˜0.5% mannuronate, ˜5 ug of purified Atu3026 (ADH12) or Atu3027 (ADH11), and ˜5 ug of purified oligoalginate lyase (Atu3025), UxuA, KdgK, and KdgA, 2 mM of ATP, and 0.6 mM of NADPH in 20 mM Tris-HCl pH7.0. The reaction was carried out over night and the pyruvate formation was monitored by the pyruvate assay kit (BioVision, Inc).

[4] = background statement, no test described; cited from earlier work

B1: Vs24259: putative Vibrio splendidus protein similar to an alginate lyase, SEQ ID NO: 34; negative control in TBA assay (protein, listed as Vibrio splendidus)
chain: MKQITLKTLLASSILLAVGCASTSTPTADFPNNKETGEALLTPVAVSASSHDGNGPDRLVDQDLTTRWSSAGDGEWATLDYGSVQEFDAVQASFSKGNQRQSKFDIQVSVDGESWTTVLENQLSSGKAIGLERFQFEPVVQARYVRYVGHGNTKNGWNSVTGLAAVNCSINACPASHIITSDVVAAEAVIIAEMKAAEKARKDARKDLRSGNFGVAAVYPCETTVECDTRSALPVPTGLPATPVAGNSPSENFDMTHWYLSQPFDHDKNGKPDDVSEWNLANGYQHPEIFYTADDGGLVFKAYVKGVRTSKNTKYARTELREMMRRGDQSISTKGVNKNNWVFSSAPESDLESAAGIDGVLEATLKIDHATTTGNANEVGRFIIGQIHDQNDEPIRLYYRKLPNQETGAVYFAHESQDATKEDFYPLVGDMTAEVGDDGIALGEVFSYRIDVKGNTMTVTLIREGKDDVVQVVDMSNSGYDAGGKYMYFKAGVYNQNISGDLDDYSQATFYQLDVSHDQYKK
[1]
  TBA assay result (cleavage of alginate polymer in growth medium): little or no cleavage of the alginate polymer has occurred

B2: 2ADH-16: secondary alcohol dehydrogenase isolated from Klebsiella pneumoniae subsp. pneumoniae MGH 78578, SEQ ID NO: 138 (protein)
chain: MTAFHNKSVLVLGGSRGIGAAIVRRFVADGASVVFSYSGSPEAAERLAAETGSTAVQADSADRDAVISLVRDSGPLDVLVVNAGIALFGDALEQDSDAIDRLFHINIHAPYHASVEAARRMPEGGRIIVIGSVNGDRMPLPGMAAYALSKSALQGLARGLARDFGPRGITVNVVQPGPIDTDANPENGPMKELMHSFMAIKRHGRPEEVAGMVAWLAGPEASFVTGAMHTIDGAFGA
modifications: Klebsiella pneumoniae subsp. pneumoniae MGH78578
[2]
  oxidation and reduction of various substrates: capable of catalyzing both the oxidation and reduction of a wide variety of substrates

B3: Vs24254: putative Vibrio splendidus protein similar to an alginate lyase, SEQ ID NO: 32; functional external alginate lyase (protein, listed as Vibrio splendidus)
chain: MNKPIFVVVLASLTYGCGGSSSSDSSDPSDTNNSGASYGVVAPYDIAKYQNILSSSDLQVSDPNGEEGNKTSEVKDGNFDGYVSDYFYADEETENLIFKMANYKMRSEVREGENFDINEAGVRRSLHAEISLPDIEHVMASSPADHDEVTVLQIHNKGTDESGTGYIPHPLLRVVWEQERDGLTGHYWAVMKNNAIDCSSAADSSDCYATSYNRYDLGEADLDNFTKFDLSVYENTLSIKVNDEVKVDEDITYWQHLLSYFKAGIYNQFENGEATAHFQALRYTTTQVNGSNDWDINDWKLTIPASKDTWYGSGGDSAAELEPERCESSKDLLANDSDVYDSDIGLSYFNTDEGRVHFRADMGYGTSTENSSYIRSELRELYQSSVQPDCSTSDEDTSWYLDDTRTNATSHELTASLRIEDYPNINNQDPKVVLGQIHGWKINQALVKLLWEGESKPVRVILNSDFERNNQDCNHCDPFSVELGTYSASEEWRYTIRANQDGIYLATHDLDGTNTVSHLIPWGQDYTDKDGDTVSLTSDWTSTDIAFYFKAGIYPQFKPDSDYAGEVFDVSFSSLRAEHN
[1]
  TBA assay result (cleavage of alginate polymer in growth medium): positive TBA assay result of pink color

B4: Atu3027: alcohol dehydrogenase isolated from Agrobacterium tumefaciens C58, polypeptide SEQ ID NO: 90 (protein)
chain: MRSELPEGFFGPREWARLNAVADIIPGFPHTDFDTANGAEALAEADILLAAWGTPSLTRERLSRAPRLKMLAYAASSVRMVAPAEFWETSDILVTTAASAMAVPVAEFTYAAIIMCGKDVFRLRDEHRTERGTGVFGSRRGRSLPYLGNHARKVGIVGASRIGRLVMEMLARGTFEIAVYDPFLSAEEAASLGAKKAELDELLAWSDVVSLHAPILPETHHMIGARELALMADHAIFINTARGWLVDHDALLTEAISGRLRILIDTPEPEPLPTDSPFYDLPNVVLTPHIAGALGNELRALSDLAITEIERFVAGLAPLHPVHKQDMERMA
modifications: Agrobacterium tumefaciens C58
[3]
  DEHU hydrogenase and mannuronate hydrogenase reactions in pyruvate formation from alginate: capable of catalyzing both DEHU hydrogenase and mannuronate hydrogenase reactions

B5: BAL: benzaldehyde lyase (BAL) from Pseudomoas fluorescens, ThDP-dependent C—C ligase, SEQ ID NOS: 143-144 (protein, listed as Pseudomonas fluorescens)
chain: MAMITGGELVVRTLIKAGVEHLFGLHGAHIDTIFQACLDHDVPIIDTRHEAAAGHAAEGYARAGAKLGVAGHGGRGIYQCGHAHCQRLAGSQGRCIPHPGSGALRDDETNTLQAGIDQVAMAAPITKWAHRVMATEHIPRLVMQAIRAALSAPRGPVLLDLPWDILMNQIDEDSVIIPDLVLSAHGARPDPADLDQALALLRKAERPVIVLGSEASRTARKTALSAFVAATGVPVFADYEGLSMLSGLPDAMRGGLVQNLYSFAKADAAPDLVLMLGARFGLNTGHGSGQLIPHSAQVIQVDPDACELGRLQGIALGIVADVGGTIEALAQATAQDAAWPDRGDWCAKVTDLAQERYASIAAKSSSEHALHPFHASQVIAKHVDAGVTVVADGALTYLWLSEVMSRVKPGGFLCHGYLGSMGVGFGTALGAQVADLEAGRRTILVTGDGSVGYSIGEFDTLVRKQLPLIVIIMNNQSWGATLHFQQLAVGPNRVTGTRLENGSYHGVAAAFGADGYHVDSVESFSAALAQALAHNRPACINVAVALDPIPPEELILIGMDPFA
[4]
  rate of benzoin formation from two benzaldehyde molecules: 320 μmol (benzoin) mg (protein)^−1 min^−1
